Several values for one entry are separate records, joined by “and”; a condition that tells them apart may be missing. Identical values can stand only once.
Experiments:
[1] = Thermostability of purified enzyme: residual activity after 30 minutes at each temperature; type: physicochemical
Protocol: (§1) By using the decrease of OD265 at the time of reaction as an index, the enzyme activity was measured. To 1.5 ml of solution obtained by mixing 0.017M 5′ AMP-2Na and 1/15M phosphate buffer solution (pH 5.6) at the ratio of 1:2, 0.5 ml of sample solution was added so as to obtain a reaction solution, which was reacted at 37° C. for 15 minutes. Then, 2% perchloric acid solution was added so as to stop the reaction and 100 μl of the solution was taken out. Water was added to the solution so that the total amount was 5 ml. Then, OD265 was measured. The value similarly measured at reaction time of 0 minute was defined as a blank. Under the above-mentioned conditions, a case where an absorbance difference is reduced by 0.001 during 60 minutes was defined as one unit.
Subsequently, the thermostability of the enzyme was examined by the following procedure. An enzyme solution (0.15 ml) containing 2.8 μg protein (total amount) was adjusted to pH 5.6 by using acetate buffer (pH 5.0), and then treated for 30 minutes at each temperature (40° C., 50° C., 60° C., 65° C., 70° C., and 75° C.). Then, the residual activity (percent with respect to the enzyme activity in the case where the treatment was not carried out) was measured. At 65° C. or less, about 90% or more of activity is maintained. Furthermore, also when the treatment is carried out at 70° C., about 55% of the activity is maintained.

[2] = Thermostability of crude enzyme solutions / culture supernatant: residual AMP deaminase activity after 30 minutes; type: physicochemical; settings: enzyme solution or culture supernatant treated 30 minutes at 30-75° C., pH 5.6
Protocol: as §1, with “unit. […]” for “unit.”
Then, in the genus Streptomyces in the stored strains of Amano Enzyme Inc., screening of AMP deaminase producing strain was carried out. […] Furthermore, the residual activity was measured when the activity obtained when treatment was not carried out was defined as 100%. […]
The thermostability of AMP deaminase produced by transformant (SAD-1) was measured. Culture supernatant of SAD-1 prepared by the above-mentioned method was treated at a predetermined temperature, and the residual AMP deaminase activity was measured (pH 5.6). […]

[3] = Feasibility test 1: nuclease and deaminase treatment of yeast lysate carried out independently; settings: after nuclease treatment; deaminase at 50° C., pH 6, 5 hours
Protocol: In test 1, similar to the current production method, treatment with nuclease and treatment with deaminase were carried out independently. Specifically, the treatment was carried out by the following procedure and the IMP conversion rate was calculated. Firstly, nuclease “AMANO” G (Amano Enzyme Inc., 0.1% w/w yeast solid) was added to yeast lysate (YL-15, 0.2%) and they were reacted with each other under the conditions at a temperature of 70° C. and pH 5 for 3 hours. Then, “Deamizyme (50,000 u/mg product) (trade name of Amano Enzyme Inc., 0.01 to 0.04% w/w yeast solid)” that is an AMP deaminase agent derived from the test enzyme (Aspergillus melleus), or a crude enzyme solution prepared from Streptomyces murinus was added and reacted with each other under the conditions at a temperature of 50° C. and pH 6 for 5 hours. Then, the reacted product was heat treated, and then subjected to HPLC analysis. Note here that added amount of AMP deaminase derived from Streptomyces murinus was set so that the activity value thereof became the same as that of “Deamizyme (50,000 u/mg product)” (trade name, Amano Enzyme Inc.)

[4] = Chromatofocusing (isoelectric point); type: physicochemical; settings: 8.12 = main fraction; at least two isozymes
Protocol: In order to obtain an isoelectric point of AMP deaminase derived from Streptomyces murinus obtained by the above-mentioned method, chromatofocusing was carried out. By using MonoP column (Pharmacia), a starting buffer (Start Buffer) and an elution buffer (Poly buffer 96) were adjusted to pH 4.0 with 0.075M Tris acetate buffer (pH9.3) and with hydrochloric acid, respectively. The final amount was made to 100 ml. Furthermore, Pre-gradient with 3 ml, gradient elution with 30 ml and elution with 30 ml were carried out. From the results, it was thought that at least two isozymes were present (pI 8.12, 7.02), but the isoelectric point of main fraction was 8.12. Various properties, including the isoelectric point obtained from the above-mentioned results, of AMP deaminase derived from Streptomyces murinus, are shown in FIG. 11.

Substrate specificity = type: biochemical

B1: AMP deaminase derived from Streptomyces murinus: thermostable AMP deaminase enzyme produced by Streptomyces murinus IFO14802; amino acid sequence SEQ ID NO: 1 (protein, listed as Streptomyces murinus)
chain: APPPRQATAAEARTDAYLRSVKDRPAALRAFFRQLPKGGDLHNHLSGAVNTDYLIELAAEDGLCIDATMTAVPSPCGPGTRPAADARTDRAFHDAIVRAWSMQDFPPDENGHDHFFDTFGKFGEVTWRHRGKLLAQVADTVVANNQSYLETMVTPASDGAKQLADQVGWDADLTALHRKLAAGGKLDKLVADARKEADDGDAEFRATEHCGTAKARPACGLTVRWISQASRGSSPVRVFTQLDLGMRLAEADSRFVAVNLVQPEDWDSSLENYSLQMRMVGYLRTVYPKAHVTLHAGELWPGLVKPEALKFHIAEAVDIAHTQRVGHGVDLVHEDNWQRTARTMAARQIAVEVPFSSNAQILGVKGAEHPFTTYRRYGVPVVLATDDPGVSRIDISHEYQYAAATYGLGYPELKDLARASLQYAFLPGASLWQGNPTAQGYHPVAACRAERPGQPVHSAACRRLLDGSARARLEWRQEAAFAAFERAHARG
temperature stability (stable at) ([1]; acetate buffer solution (pH 5.6)): ≤ 65 °C
residual activity ([1]; treated at 70° C. for 30 minutes, pH 5.6 acetate buffer, untreated = 100%): about 55%
thermostability (residual AMP deaminase activity) [2]: extremely excellent
IMP conversion rate compared with AMP deaminase derived from Aspergillus melleus [3]: equivalent
isoelectric point (pI) [4]: 8.12 and 7.02
action on substrate 5′-GMP (Substrate specificity): did not act on

Source: patent US7709240B2, “AMP deaminase originating streptomyces and utilization thereof” (Amano Enzyme Inc., priority 2004, dated 2010)
